According to article PMC9687312:

Tests used:
[1] = target: MGL Biot-ECD (biotinylated extracellular domain of MGL) (UniProt Q8IUN9); experiment: SPR
[2] = target: DC-SIGN Biot-ECD (biotinylated extracellular domain of DC-SIGN) (UniProt Q9NNX6); experiment: SPR
Chain of UniProt Q9NNX6 (Q9NNX6 59-404): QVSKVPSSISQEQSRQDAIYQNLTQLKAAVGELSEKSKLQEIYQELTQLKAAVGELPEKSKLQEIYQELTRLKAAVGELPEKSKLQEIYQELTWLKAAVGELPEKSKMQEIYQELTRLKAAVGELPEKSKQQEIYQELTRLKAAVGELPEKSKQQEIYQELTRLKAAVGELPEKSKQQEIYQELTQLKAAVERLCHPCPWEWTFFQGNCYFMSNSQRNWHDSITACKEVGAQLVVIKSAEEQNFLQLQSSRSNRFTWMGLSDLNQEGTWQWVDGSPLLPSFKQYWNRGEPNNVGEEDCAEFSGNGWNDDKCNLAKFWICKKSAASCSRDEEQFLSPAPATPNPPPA

Chain of UniProt Q8IUN9 (Q8IUN9 61-316): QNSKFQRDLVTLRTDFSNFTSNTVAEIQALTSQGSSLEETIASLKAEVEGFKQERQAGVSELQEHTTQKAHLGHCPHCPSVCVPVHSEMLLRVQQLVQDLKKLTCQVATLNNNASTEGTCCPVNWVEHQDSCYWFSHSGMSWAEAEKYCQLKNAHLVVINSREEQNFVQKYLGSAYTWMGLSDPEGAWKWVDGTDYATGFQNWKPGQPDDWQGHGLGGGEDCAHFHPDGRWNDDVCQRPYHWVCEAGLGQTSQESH

Substance: Spike Receptor Binding Domain of SARS-CoV-2 fused to the SpyCatcher (RBD-SC) (from UniProt P0DTC2 320-554)
- Kd [1]: 982 nM
- Kd [2]: 601 nM
